According to article PMC7545097, “Mapping the native interaction surfaces of PREP1 with PBX1 by cross-linking mass-spectrometry and mutagenesis” (Scientific Reports, 2020):
Numbering of substitutions follows the chain as printed.

T1: PBX1 Δ105-113 (human, UniProt P40424 1-430, Δ105-113)
T1 construct: PBX1, residues 1-430, with an internal deletion; source: E. coli, purified
T1 sequence (looked up): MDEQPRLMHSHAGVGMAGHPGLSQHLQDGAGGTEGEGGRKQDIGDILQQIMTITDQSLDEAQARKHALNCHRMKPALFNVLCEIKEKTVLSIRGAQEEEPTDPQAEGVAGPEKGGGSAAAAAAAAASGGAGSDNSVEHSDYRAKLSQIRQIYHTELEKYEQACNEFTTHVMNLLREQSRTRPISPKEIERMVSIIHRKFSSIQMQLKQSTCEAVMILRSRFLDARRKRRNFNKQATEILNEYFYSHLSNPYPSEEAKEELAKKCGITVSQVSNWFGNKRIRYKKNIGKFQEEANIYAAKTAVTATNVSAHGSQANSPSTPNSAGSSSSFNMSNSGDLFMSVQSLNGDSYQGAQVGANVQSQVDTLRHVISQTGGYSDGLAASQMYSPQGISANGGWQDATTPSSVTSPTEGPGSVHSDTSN

T2: PBX1 I197A (human, UniProt P40424 1-430, I197A)
T2 construct: PBX1, residues 1-430; source: E. coli, purified
T2 sequence (looked up): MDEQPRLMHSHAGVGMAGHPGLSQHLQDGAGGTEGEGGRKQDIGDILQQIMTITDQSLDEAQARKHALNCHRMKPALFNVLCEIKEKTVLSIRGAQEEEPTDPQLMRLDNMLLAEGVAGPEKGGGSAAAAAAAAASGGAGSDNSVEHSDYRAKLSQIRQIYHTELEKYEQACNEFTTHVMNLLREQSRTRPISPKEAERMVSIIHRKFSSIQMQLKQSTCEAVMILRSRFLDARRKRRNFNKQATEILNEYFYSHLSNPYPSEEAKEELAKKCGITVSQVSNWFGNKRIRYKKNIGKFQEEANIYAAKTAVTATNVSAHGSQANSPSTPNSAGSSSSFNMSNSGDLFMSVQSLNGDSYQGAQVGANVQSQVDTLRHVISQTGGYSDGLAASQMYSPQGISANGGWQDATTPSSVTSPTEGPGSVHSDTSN

T3: PREP1 L70A (UniProt P55347 1-436, L70A)
T3 construct: PREP1 (PKNOX1), residues 1-436
T3 sequence (looked up): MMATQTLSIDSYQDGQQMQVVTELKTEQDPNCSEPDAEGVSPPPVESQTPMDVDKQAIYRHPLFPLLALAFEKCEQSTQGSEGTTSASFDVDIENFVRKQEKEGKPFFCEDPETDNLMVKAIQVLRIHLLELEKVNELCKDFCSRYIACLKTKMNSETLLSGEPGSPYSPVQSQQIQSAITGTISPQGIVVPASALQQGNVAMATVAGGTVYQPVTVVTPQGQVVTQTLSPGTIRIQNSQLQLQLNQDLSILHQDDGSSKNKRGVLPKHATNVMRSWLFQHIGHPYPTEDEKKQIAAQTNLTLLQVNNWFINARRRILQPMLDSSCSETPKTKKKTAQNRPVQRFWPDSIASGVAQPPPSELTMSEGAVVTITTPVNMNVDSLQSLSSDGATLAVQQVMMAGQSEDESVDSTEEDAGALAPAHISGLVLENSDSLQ

T4: PREP1 L66A (UniProt P55347 1-436, L66A)
T4 construct: PREP1 (PKNOX1), residues 1-436
T4 sequence (looked up): T3 sequence (looked up) with L66A, A70L

B1: PREP1_(1-436), wild-type recombinant (TR-FIA) (natural protein, UniProt P55347 1-436, looked up)
chain: T3 sequence (looked up) with A70L
notes: also called wild-type PREP1; PKNOX1; source: E. coli, purified
B2: PBX1_(1-430), wild-type recombinant (natural protein, human, UniProt P40424 1-430, looked up)
chain: T2 sequence (looked up) with A197I
notes: also called wild-type PBX1; purified recombinant human PBX1; source: E. coli, purified

Legend:
Assay in all cases: time-resolved fluorescence immunoassay (TR-FIA); plate coated with monoclonal anti-PBX1; PBX1 pre-incubated with PREP1 or MEIS1 for 1 h on ice, 10 µg/mL in 1% BSA PBS, 1 h at room temperature on the plate; detected with anti-PREP1 or biotinylated anti-MEIS1/2 and Eu^3+ conjugates; normalised to the wild-type protein taken as 1
Details in all cases: both partners purified
PBX1 Δ105-113 = target: T1, PBX1 Δ105-113
PBX1 I197A = target: T2, PBX1 I197A
PREP1 L70A = target: T3, PREP1 L70A
PREP1 L66A = target: T4, PREP1 L66A

Binder | binding relative to wild type (PBX1 Δ105-113) [%] | binding relative to wild type (PBX1 I197A) [%] | binding result (PREP1 L70A) | binding result (PREP1 L66A)
B1 | 75 | ~65 |  | 
B2 |  |  | binds | binds
